Source: patent publication US20240141061A1, “NOVEL ANTIBODY AGAINST CD55 AND USE THEREOF” (SG MEDICAL INC, priority 2021, published 2024)
“Also recorded” adds a separate entry of the source.

What was measured:
[1] = target: T1, recombinant human CD55 (R&D Systems 2009-CD/CF) (human, UniProt P08174 35-353); experiment: indirect ELISA, recombinant human CD55 coated
T1 construct: Bought recombinant protein coated on ELISA plates; also called decay-accelerating factor; DAF
T1 sequence (looked up): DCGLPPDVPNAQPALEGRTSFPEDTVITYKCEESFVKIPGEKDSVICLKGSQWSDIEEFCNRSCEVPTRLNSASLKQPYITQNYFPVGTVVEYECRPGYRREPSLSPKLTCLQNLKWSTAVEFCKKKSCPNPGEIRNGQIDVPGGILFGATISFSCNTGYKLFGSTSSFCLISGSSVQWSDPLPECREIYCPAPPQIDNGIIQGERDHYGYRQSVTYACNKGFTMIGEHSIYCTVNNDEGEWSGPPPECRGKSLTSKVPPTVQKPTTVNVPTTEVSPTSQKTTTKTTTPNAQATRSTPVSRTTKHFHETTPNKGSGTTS

[2] = target: T2, recombinant human CD55 (Homo sapiens, UniProt P08174); experiment: Indirect ELISA, affinity for CD55; type: binding; conditions: full-length antibody 0.0001-10 nM on CD55 coated at 1 μg/mL
T2 construct: purchased R&D Systems 2009-CD/CF
T2 sequence (P08174 35-353): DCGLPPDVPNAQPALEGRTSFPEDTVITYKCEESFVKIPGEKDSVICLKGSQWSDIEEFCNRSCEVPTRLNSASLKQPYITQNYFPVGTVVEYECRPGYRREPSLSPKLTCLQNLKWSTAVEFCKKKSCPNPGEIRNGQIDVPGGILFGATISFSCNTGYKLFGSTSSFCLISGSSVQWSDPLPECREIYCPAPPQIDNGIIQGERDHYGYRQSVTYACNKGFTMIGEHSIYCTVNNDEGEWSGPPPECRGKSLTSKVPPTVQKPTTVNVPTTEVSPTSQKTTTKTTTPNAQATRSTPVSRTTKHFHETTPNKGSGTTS
Method: (§1) The binding ability of the G4-1H monoclonal antibody prepared in Example 2 for CD55 was investigated by indirect ELISA. For the indirect ELISA, recombinant human CD55 (R&D Systems, USA) diluted to 1 μg/mL in 50 μL of PBS was added to a 96-well immunoplate (Corning, USA) and then adsorbed by keeping at 4° C. overnight. After incubation for 1 hour at room temperature in a buffer containing 3% bovine serum albumin (Millipore, USA), followed by washing with a buffer containing 0.5% Tween 20 (Amresco, USA) three times, 50 μL of the serially diluted antibody (0.0001, 0.0003, 0.001, 0.003, 0.01, 0.03, 0.1, 0.3, 1, 3 and 10 nM) was treated per well. After incubation at room temperature for 2 hours for antibody-antigen binding, the antibody-antigen complex was washed three times with a buffer containing 0.5% Tween 20 (Amresco, USA). After treating with 50 μL of anti-human immunoglobulin Fc-HRP antibody (Jackson Immunoresearch, USA) diluted to 1:3,000 per well, followed by incubation at room temperature for 1 hour and washing three times with a buffer containing 0.5% Tween 20 (Amresco, USA), color development was conducted for 10 minutes by adding 50 μL of 3,3′,5,5′-tetramethylbenzidine (TMB) (ThermoFisher Scientific, USA).
The affinity of the antibodies screened in Example 6 for CD55 was investigated by indirect ELISA. The indirect ELISA was conducted in the same manner as in Example 3.
The affinity of the antibodies prepared in Example 8 for CD55 was investigated by indirect ELISA. The indirect ELISA was conducted in the same manner as in Example 3. […]

[3] = tested on: PC9-GR cells; experiment: Apoptosis by FACS in gefitinib-resistant PC9-GR cells; type: cell-based; conditions: 5 μg/mL gefitinib + 5 μg/mL anti-CD55 antibody, 24 hours
Method: 24 hours later, after treating with 5 μg/mL gefitinib or 5 μg/mL gefitinib and 5 μg/mL 4-1H or EP-10H diluted with 500 μL of RPMI, the cells were cultured again for 24 hours under the condition of 37° C. and 5% CO2. Then, apoptotic cells were analyzed with the FACS analysis equipment Attune N×T using 7-AAD and an FITC annexin V apoptosis detection kit (FIG. 7b).

[4] = tested on: Burkitt lymphoma BJAB cells; experiment: CDC / apoptosis by FACS (annexin V/7-AAD) in BJAB cells with complement human serum; type: cell-based; conditions: 50 μg/mL anti-CD55 antibody + 20 μg/mL rituximab, 50% complement human serum, 1 hour
Text: BJAB cells have complement resistance and this is due to the expression of CD55 (Golay, et al., Blood, 95 (12):3900-8, 2000). For this reason, they show low response to rituximab the main therapeutic mechanism of which is CDC (complement-dependent cytotoxicity). In order to confirm the possibility of improving the therapeutic effect of rituximab for Burkitt lymphoma, which is known as malignant B cell lymphoma, the apoptotic ability of co-administration with EP-10H in Burkitt lymphoma BJAB cells was investigated. For investigation of the effect of co-administration, 5×10^5 BJAB cells were cultured for 1 hour under the condition of 37° C. and 5% CO2 after treating with 100 μL of RPMI supplemented with 50% complement human serum (Sigma, USA), containing 50 μg/mL of 4-1H or EP-10H and 20 μg/mL of rituximab. Then, CDC was observed by identifying apoptotic cells with Attune N×T (ThermoFisher Scientific, USA), which is a FACS analysis equipment, using an FITC annexin V apoptosis detection kit with 7-AAD (BioLegend, USA) (FIG. 4). […] It was confirmed that this effect was more significant for EP-10H having higher affinity for CD55.
The apoptotic ability of the CD20×CD55 bispecific antibody was investigated by the method of Example 10-1. […]

[5] = tested on: Ramos-RR cells; experiment: CDC / apoptosis by FACS in rituximab-resistant Ramos-RR cells with complement human serum; type: cell-based; conditions: anti-CD55 antibody + rituximab, method of Example 10-1
[6] = tested on: K562-IR cells; experiment: Apoptosis by FACS in imatinib-resistant K562-IR cells; type: cell-based; conditions: 2 μM imatinib + 10 μg/mL anti-CD55 antibody, 24 hours
Method: Immediately thereafter, the cells were treated with 2 μM imatinib or with 2 μM imatinib and 10 μg/mL 4-1H or EP-10H diluted with 500 μL of RPMI, and then cultured under the condition of 37° C. and 5% CO2 for 24 hours. Then, apoptotic cells were analyzed with the FACS analysis equipment Attune N×T using 7-AAD and an FITC annexin V apoptosis detection kit (FIG. 6b).

[7] = target: T1, recombinant human CD55 (R&D Systems …); experiment: phage ELISA, recombinant human CD55 coated, anti-M13-HRP; 4-1H phage clone as control
Method: 192 clones screened from the products of the third and fourth biopanning were incubated overnight at 37° C. on a 96-deep well plate after adding 100 μg/mL carbenicillin, 70 μg/mL kanamycin and VCSM13 helper phage to induce the proliferation of phages wherein the antibody was expressed. After centrifuging the culture, the supernatant containing the phage was incubated at 37° C. for 2 hours on an ELISA plate coated with recombinant human CD55 (R&D Systems 2009-CD/CF, USA). Then, the antibody binding to CD55 was identified by ELISA using HRP-conjugated anti-M13 antibody (Merck, USA) as a secondary antibody.

[8] = target: T1, recombinant human CD55 (R&D Systems …); experiment: indirect ELISA, recombinant human CD55 coated, anti-human Fc-HRP
Method: as §1

Molecule | affinity for CD55 (indirect ELISA, absorbance at 450 nm) [2] | binding result [7] | further results
10H(A) (antibody, V domains shown) VH: EVQLVESGGGLVQPGGSLRLSCAASGFTFSDRGMAWVRQAPGKGLEWVSGISSSGRYTYYAPAVKGRATISRDNSKNTLYLQMNSLRAEDTAVYYCAKNAAAGGWHAAYIDAWGQGTTVTVSS VL: SYELTQPPSVSVSPGQTASITCSGGGGSYGWYQQKPGQSPVTVIYWNDKRPSGIPERFSGSKSGNTATLTISGTQAMDEADYYCGGWDSSTYAIFGGGTKLTVL | lower affinity than EP-10H |  | binding result [1]: binds
EP-10H: anti-CD55 antibody different from G4-1H only at the H100A site (G to V), VL SEQ ID NO 4, VH SEQ ID NO 19 (antibody, V domains shown, EP-1E_VH; G4-1H_VL) VH: EVQLVESGGGLVQPGGSLRLSCAASGFTFSDRGMAWVRQAPGKGLEWVSGISSSGRYTYYAPAVKGRATISRDNSKNTLYLQMNSLRAEDTAVYYCAKNAVAGGWHAAYIDAWGQGTTVTVSS VL: SYELTQPPSVSVSPGQTASITCSGGGGSYGWYQQKPGQSPVTVIYWNDKRPSGIPERFSGSKSGNTATLTISGTQAMDEADYYCGGWDSSTYAIFGGGTKLTVL | comparable affinity |  | apoptosis on co-administration with gefitinib [3]: apoptosis was induced; also recorded: higher apoptotic effect than the co-administration of 4-1H and gefitinib; effect of rituximab (CDC, apoptotic cells) on co-administration with anti-CD55 antibody [4]: the effect was increased; also recorded: The increase was higher for a combination of rituximab and EP-10H than a combination of rituximab and 4-1H; apoptosis by rituximab on co-administration with anti-CD55 antibody [5]: increased apoptosis; also recorded: more significantly increased the apoptosis by rituximab as compared to the co-administration with 4-1H; apoptosis on co-administration with imatinib [6]: apoptosis was induced; also recorded: higher apoptotic effect than the co-administration of 4-1H and imatinib
EP-10H scFv clone displayed on phage (scFv, V domains shown, In the screening ELISA it stood as scFv on phage (pComb3x)) VH: EVQLVESGGGLVQPGGSLRLSCAASGFTFSDRGMAWVRQAPGKGLEWVSGISSSGRYTYYAPAVKGRATISRDNSKNTLYLQMNSLRAEDTAVYYCAKNAVAGGWHAAYIDAWGQGTTVTVSS VL: SYELTQPPSVSVSPGQTASITCSGGGGSYGWYQQKPGQSPVTVIYWNDKRPSGIPERFSGSKSGNTATLTISGTQAMDEADYYCGGWDSSTYAIFGGGTKLTVL |  | binds | 
10H(I) (antibody, V domains shown) VH: EVQLVESGGGLVQPGGSLRLSCAASGFTFSDRGMAWVRQAPGKGLEWVSGISSSGRYTYYAPAVKGRATISRDNSKNTLYLQMNSLRAEDTAVYYCAKNAIAGGWHAAYIDAWGQGTTVTVSS VL: SYELTQPPSVSVSPGQTASITCSGGGGSYGWYQQKPGQSPVTVIYWNDKRPSGIPERFSGSKSGNTATLTISGTQAMDEADYYCGGWDSSTYAIFGGGTKLTVL | lower affinity than EP-10H |  | binding result [1]: binds
G4-1H (antibody, V domains shown, Tested as complete antibody (full-length IgG); also called humanized 4-1H antibody; G4-1H monoclonal antibody) VH: EVQLVESGGGLVQPGGSLRLSCAASGFTFSDRGMAWVRQAPGKGLEWVSGISSSGRYTYYAPAVKGRATISRDNSKNTLYLQMNSLRAEDTAVYYCAKNAGAGGWHAAYIDAWGQGTTVTVSS VL: SYELTQPPSVSVSPGQTASITCSGGGGSYGWYQQKPGQSPVTVIYWNDKRPSGIPERFSGSKSGNTATLTISGTQAMDEADYYCGGWDSSTYAIFGGGTKLTVL |  |  | binding result [8]: binds
EP-9B scFv clone displayed on phage (scFv, V domains shown, In the screening ELISA it stood as scFv on phage (pComb3x)) VH: EVQLVESGGGLVQPGGSLRLSCAASGFTFSDRGMVWVRQSPGKGLEWVSGISSSGRYTYYAPAVKGRATISRDNSKNTLYLQMNNLRAEDTAVYYCAKNAVAGGWHAAYIDAWGQGTTVTVSS VL: SYELTQPPSVSVSPGQTASITCSGGGGSYGWYQQKPGQSPVTVIYWNDKRPSGIPERFSGSKSGNTATLTISGTQAMDEADYYCGGWDSSTYAIFGGGTKLTVL |  | binds | 
3R-2-1H scFv clone displayed on phage (scFv, V domains shown, In the screening ELISA it stood as scFv on phage (pComb3x)) VH: EVQLVESGGGLVQPGGSLRLSCVARGFTFSDRGMAWVRQAPGKGLEWVSGISSSGRYTYYAPAVKGRTTISRDNSKNTLYLQMNSLRAEDTAVYYCAKNAVAGGWHAAYIDAWGQGTTVTVSS VL: SYELTQPPSVSVSPGQTASITCSGGGGSYGWYQQKPGQSPVTVIYWNDKRPSGIPERFSGSKSGNTATLTISGTQAMDEADYYCGGWDSSTYAIFGGGTKLTVL |  | binds | 
EP-1E scFv clone displayed on phage (scFv, V domains shown, In the screening ELISA it stood as scFv on phage (pComb3x)) VH: EVQLVESGGGLVQPGGSLRLSCAASGFTFSDRGMAWVRQAPGKGLEWVSGISSSGRYTYYAPAVKGRATISRDNSKNTLYLQMNSLRAEDTAVYYCAKNAVAGGWHAAYIDAWGQGTTVTVSS VL: SYELTQPPSVSVSPGQTASITCSGGGGSYGWFQQKPGQSPVTVIYWNNKRPSGIPERFSGSKSGNTATLTISGTQAMDEADYYCGGWDSSTYAIFGGGTKLTVL |  | binds | 
EP-1F scFv clone displayed on phage (scFv, V domains shown, In the screening ELISA it stood as scFv on phage (pComb3x)) VH: EVQLAESGGGLVQPGGSLRLSCAASGFTFSDRGMAWVRQAPGKGLEWVSGISSSGRYTYYAPAVKGRATISRDNSKNTLYLQMNSLRAEDTAVYYCAKNAVAGGWHAAYIDAWGQGTTVTVSS VL: SYELTQPPSVSVSPGQTASITCSGGGGSYGWYQQKPGQSPVTVIYWNDKRPSGIPERFSGSKSGNTATLTISGTQAMDEADYYCGGWDSSTYAIFGGGTKLTVL |  | binds | 
